# Data from the supplement of paper PMC10567573.
# B1: DUSP5 (parent)
# chain: YSEYPECCVDVKPISQEKIESERA
# Variants of: B1
# Experiment: protein stability index of a GFP-peptide fusion (GPS, HEK-293T) (PSI 1-6); higher = more stable
# Conditions: c terminus: a fixed tail appended
# 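Also: lentivirally expressed fusions sorted by FACS into six bins by GFP to DsRed ratio, PSI derived from sequencing read proportions per bin multiplied by bin number.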
row,Variant,protein stability index
1,YSEYPECCVDVKPISQEKIESDRA,4.24
2,YSEYPECCVDVKPISQEKIESNRA,3.59
3,YSEYPECCVDVKPISQEKIESARA,4.36
4,YSEYPECCVDVKPISQEKIESPRA,3.45
5,YSEYPECCVDVKPISQEKIESWRA,2.88
6,YSEYPECCVDVKPISQEKIESTRA,4.17
7,YSEYPECCVDVKPISQEKIESHRA,4
8,YSEYPECCVDVKPISQEKIESRRA,3.18
9,YSEYPECCVDVKPESQEKIESERA,4.5
10,YSEYPECCVDVKPWSQEKIESERA,3.9
11,YSEYPECCVDVKPYSQEKIESERA,3.84
12,YSEYPECCVDVKPDSQEKIESERA,4.81
13,YSEYPECCVDVKPPSQEKIESERA,4.45
14,YSEYPECCVDVKPSSQEKIESERA,4.4
15,YSEYPECCVDVKPQSQEKIESERA,4.48
16,YSEYPECCVDVKPTSQEKIESERA,3.48
17,YSEYPECCVDVKPKSQEKIESERA,4.43
18,YSEYPECCVDVKPFSQEKIESERA,4.18
19,YSEYPECCVDVKPGSQEKIESERA,3.83
20,YSEYPECCVDVKPNSQEKIESERA,3.31
21,YSEYPECCVDVKPASQEKIESERA,4.58
22,YSEYPECCVDVKPMSQEKIESERA,4.65
23,YSEYPECCVDVKPVSQEKIESERA,4.11
24,YSEYPECCVDVKPHSQEKIESERA,4.29

row,Variant,protein stability index
1,YSEYPECCVDVKPCSQEKIESERA,3.86
2,YSEYPECCVDVKPRSQEKIESERA,3.45
3,YSEYPECCVDVKPISQEKIEYERA,3.76
4,YSEYPECCVDVKPISQEKIEAERA,4.36
5,YSEYPECCVDVKPISQEKIEPERA,4.29
6,YSEYPECCVDVKPISQEKIEMERA,3.72
7,YSEYPECCVDVKPISQEKIENERA,3.73
8,YSEYPECCVDVKPISQEKIEQERA,4.1
9,YSEYPECCVDVKPISQEKIEHERA,4.58
10,YSEYPECCVDVKPISQEKIEIERA,3.42
11,YSEYPECCVDVKPISQEKIEEERA,4.71
12,YSEYPECCVDVKPISQEKIERERA,3.22
13,YSEYPECCVDVKPISQEKIEKERA,4.49
14,YSEYPECCVDVKPISQEKIEFERA,4.11
15,YSEYPECCVDVKPISQEKIECERA,3.96
16,YSEYPECCVDVKPISQEKIELERA,3.79
17,YSEYPECCVDVKPISQEKIEGERA,3.8
18,YSEYPECCVDVKPISQEKIEWERA,3.61
19,YSEYPECCVDVKPISQEKIEDERA,3.47
20,YSEYPECCVDVKPISQEKIEVERA,4.36
21,YSEYPECCVDVKPISQEKIETERA,4.55
22,YSEYPECCVDVKPISQEKIESEMA,3.91
23,YSEYPECCVDVKPISQEKIESEAA,4.23
24,YSEYPECCVDVKPISQEKIESEHA,4.52

row,Variant,protein stability index
1,YSEYPECCVDVKPISQEKIESEPA,4.55
2,YSEYPECCVDVKPISQEKIESEFA,3.73
3,YSEYPECCVDVKPISQEKIESELA,4.18
4,YSEYPECCVDVKPISQEKIESEEA,4.39
5,YSEYPECCVDVKPISQEKIESEDA,4.41
6,YSEYPECCVDVKPISQEKIESENA,4.34
7,YSEYPECCVDVKPISQEKIESEKA,4.65
8,YSEYPECCVDVKPISQEKIESECA,4.98
9,YSEYPECCVDVKPISQEKIESEGA,4.42
10,YSEYPECCVDVKPISQEKIESEIA,4.24
11,YSEYPECCVDVWPISQEKIESERA,3.26
12,YSEYPECCVDVKKISQEKIESERA,4.12
13,YSEYPECCVDVKGISQEKIESERA,4.03
14,YSEYPECCVDVKSISQEKIESERA,3.33
15,YSEYPECCVDVKHISQEKIESERA,4.03
16,YSEYPECCVDVKFISQEKIESERA,3.85
17,YSEYPECCVDVKVISQEKIESERA,2.85
18,YSEYPECCVDVKIISQEKIESERA,3.69
19,YSEYPECCVDVKWISQEKIESERA,3.17
20,YSEYPECCVDVKNISQEKIESERA,3.96
21,YSEYPECCVDVKLISQEKIESERA,3.22
22,YSEYPECCVDVKQISQEKIESERA,4.14
23,YSEYPECCVDVKTISQEKIESERA,4.18
24,YSEYPECCVDVKRISQEKIESERA,3.48

row,Variant,protein stability index
1,YSEYPECCVDVKEISQEKIESERA,4.19
2,YSEYPECCVDVKMISQEKIESERA,3.5
3,YSEYPECCVDVKDISQEKIESERA,4.47
4,YSEYPECCVDVKAISQEKIESERA,4.56
5,YSEYPECCVDVKYISQEKIESERA,3.29
6,YSEYPECCVDVKCISQEKIESERA,4.88
7,YSEYPECCVDVKPIGQEKIESERA,4.45
8,YSEYPECCVDVKPITQEKIESERA,3.85
9,YSEYPECCVDVKPIAQEKIESERA,4.16
10,YSEYPECCVDVKPIIQEKIESERA,3.82
11,YSEYPECCVDVKPIDQEKIESERA,4.81
12,YSEYPECCVDVKPILQEKIESERA,3.68
13,YSEYPECCVDVKPIYQEKIESERA,4.18
14,YSEYPECCVDVKPIRQEKIESERA,4.09
15,YSEYPECCVDVKPIFQEKIESERA,3.64
16,YSEYPECCVDVKPIKQEKIESERA,3.68
17,YSEYPECCVDVKPIQQEKIESERA,4.05
18,YSEYPECCVDVKPICQEKIESERA,4.14
19,YSEYPECCVDVKPIEQEKIESERA,4.18
20,YSEYPECCVDVKPIHQEKIESERA,4.47
21,YSEYPECCVDVKPIPQEKIESERA,4.38
22,YSEYPECCVDVKPIVQEKIESERA,3.96
